Experimental data as given in JP2016528193A.

Each substance was assayed against ヒトD374Y PCSK9 (human) (assay: competition ELISA: block of biotinylated D374Y PCSK9 (20 ng/mL) binding to captured LDLR).

Row | Substance | IC50 [nM]
1 | 21B12 IgG2 (antibody) | 0.17
2 | 21B12 IgG4 (antibody) | 0.169
3 | 31H4 IgG2 (antibody) | 0.199
4 | 31H4 IgG4 (antibody) | 0.156

What follows are substances tested against ヒトD374Y PCSK9 (human) (assay: cell-based or functional assay).

Row | Substance | 細胞LDL取り込みアッセイ(HepG2、LDL-BODIPY)のIC50 [nM]
5 | 21B12 IgG2 (antibody) | 13.3
6 | 21B12 IgG4 (antibody) | 18
7 | 31H4 IgG2 (antibody) | 16.7
8 | 31H4 IgG4 (antibody) | 13.3

The substances below were run against ヒトPCSK9(野生型) (human) (assay: Biacore at pH 6.0 (HBS-P with 0.01 % BSA), fitted from competition curves, n=1).

Row | Substance | Kd [pM]
9 | 21B12 (antibody) | 7.3
